The text below walks through data of article PMC7316778 (Nature Communications, 2020).

Common to all, as to experiment: PamChip microarray peptide phosphorylation
In experiment [1] the target is T1, FES^WT (Homo sapiens, UniProt P07332).
T1 construct: human FES cDNA encoding residues 448–822 or human FER cDNA encoding residues 448–820 was amplified by PCR; made in house; host or cells: E. coli BL21(DE3), co-expressing YopH phosphatase
The format is biochemical. The settings on record: peptide substrate phosphorylated by FES - WT.

Experiment [2] has as its target CSK (Homo sapiens, UniProt P41240). Conditions: peptide substrate phosphorylated by CSK.
In experiment [3] the target is SYK (Homo sapiens, UniProt P43405). Conditions: peptide substrate phosphorylated by SYK.
In experiment [4] the target is LYN (Homo sapiens, UniProt P07948). Conditions: peptide substrate phosphorylated by LYN.
Chain of LYN (P07948 whole entry): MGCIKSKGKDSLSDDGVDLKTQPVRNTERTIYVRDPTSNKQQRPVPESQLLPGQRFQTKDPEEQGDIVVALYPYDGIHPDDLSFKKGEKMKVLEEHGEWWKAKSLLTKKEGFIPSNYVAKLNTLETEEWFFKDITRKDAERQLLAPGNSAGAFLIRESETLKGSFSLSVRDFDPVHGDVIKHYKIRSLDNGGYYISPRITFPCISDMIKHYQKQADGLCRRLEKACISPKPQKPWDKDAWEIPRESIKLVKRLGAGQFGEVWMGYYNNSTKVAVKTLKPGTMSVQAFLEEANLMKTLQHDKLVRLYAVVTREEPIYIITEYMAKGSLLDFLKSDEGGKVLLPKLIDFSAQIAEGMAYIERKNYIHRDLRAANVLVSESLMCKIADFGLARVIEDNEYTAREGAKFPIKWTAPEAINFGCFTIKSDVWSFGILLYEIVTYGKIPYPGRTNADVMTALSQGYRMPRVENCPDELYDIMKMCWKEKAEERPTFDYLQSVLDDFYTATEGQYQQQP
Experiment [5] concerns the target FGR (Homo sapiens, UniProt P09769). The settings on record: peptide substrate phosphorylated by FGR.
The target in experiment [6] is ABL1 (Homo sapiens, UniProt P00519). Conditions: peptide substrate phosphorylated by ABL1.
Chain of ABL1 (P00519 whole entry): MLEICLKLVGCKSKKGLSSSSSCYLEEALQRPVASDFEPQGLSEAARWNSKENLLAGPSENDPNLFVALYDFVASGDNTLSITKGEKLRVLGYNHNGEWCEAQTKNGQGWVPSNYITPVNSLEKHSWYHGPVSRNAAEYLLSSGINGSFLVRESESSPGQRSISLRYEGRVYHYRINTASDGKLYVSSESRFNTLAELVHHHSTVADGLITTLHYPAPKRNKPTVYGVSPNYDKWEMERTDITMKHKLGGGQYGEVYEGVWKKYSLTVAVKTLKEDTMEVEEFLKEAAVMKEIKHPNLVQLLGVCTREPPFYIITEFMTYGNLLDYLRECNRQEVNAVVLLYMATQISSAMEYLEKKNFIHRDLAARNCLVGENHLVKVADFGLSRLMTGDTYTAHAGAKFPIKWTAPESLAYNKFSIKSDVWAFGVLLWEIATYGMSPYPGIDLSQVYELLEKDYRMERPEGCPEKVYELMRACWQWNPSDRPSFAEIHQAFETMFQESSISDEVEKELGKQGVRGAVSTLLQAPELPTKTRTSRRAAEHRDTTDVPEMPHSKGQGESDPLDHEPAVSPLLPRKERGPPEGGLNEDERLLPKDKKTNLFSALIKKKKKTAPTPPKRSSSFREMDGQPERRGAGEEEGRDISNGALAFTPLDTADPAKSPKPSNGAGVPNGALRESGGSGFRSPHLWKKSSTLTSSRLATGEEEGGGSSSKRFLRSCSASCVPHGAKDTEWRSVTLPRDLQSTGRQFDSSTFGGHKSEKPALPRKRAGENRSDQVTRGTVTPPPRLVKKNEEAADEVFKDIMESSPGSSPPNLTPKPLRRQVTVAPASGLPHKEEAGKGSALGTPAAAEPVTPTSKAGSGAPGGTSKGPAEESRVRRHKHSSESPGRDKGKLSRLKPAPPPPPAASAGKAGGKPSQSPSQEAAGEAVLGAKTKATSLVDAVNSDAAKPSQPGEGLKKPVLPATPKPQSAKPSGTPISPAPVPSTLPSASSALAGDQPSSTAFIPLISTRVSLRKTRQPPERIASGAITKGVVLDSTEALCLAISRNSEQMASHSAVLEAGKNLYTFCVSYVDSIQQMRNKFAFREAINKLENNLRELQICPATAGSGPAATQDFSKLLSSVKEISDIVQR

T1 sequence (P07332 448-822): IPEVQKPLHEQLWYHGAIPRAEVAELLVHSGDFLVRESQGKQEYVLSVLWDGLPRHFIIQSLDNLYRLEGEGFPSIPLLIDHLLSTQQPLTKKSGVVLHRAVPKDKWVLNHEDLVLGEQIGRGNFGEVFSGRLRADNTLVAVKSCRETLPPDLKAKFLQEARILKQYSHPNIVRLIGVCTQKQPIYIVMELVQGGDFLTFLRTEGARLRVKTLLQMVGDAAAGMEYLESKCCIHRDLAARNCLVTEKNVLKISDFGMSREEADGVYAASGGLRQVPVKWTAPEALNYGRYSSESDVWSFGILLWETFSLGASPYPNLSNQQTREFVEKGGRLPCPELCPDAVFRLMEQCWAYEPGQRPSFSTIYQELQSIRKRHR
Chain of CSK (P41240 whole entry): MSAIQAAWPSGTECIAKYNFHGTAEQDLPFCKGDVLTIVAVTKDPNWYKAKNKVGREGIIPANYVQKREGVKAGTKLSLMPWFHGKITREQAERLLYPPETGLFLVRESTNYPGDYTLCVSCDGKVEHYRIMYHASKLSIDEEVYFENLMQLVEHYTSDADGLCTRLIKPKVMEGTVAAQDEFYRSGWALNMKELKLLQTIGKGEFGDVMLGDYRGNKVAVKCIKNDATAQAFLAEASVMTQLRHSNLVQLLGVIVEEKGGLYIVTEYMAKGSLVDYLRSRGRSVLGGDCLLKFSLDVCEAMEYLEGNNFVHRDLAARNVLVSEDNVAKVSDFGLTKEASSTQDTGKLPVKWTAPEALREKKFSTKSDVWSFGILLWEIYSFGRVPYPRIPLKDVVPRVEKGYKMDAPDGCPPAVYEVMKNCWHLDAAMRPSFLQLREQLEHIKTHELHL

Regarding “NTRK2_509_521 (PVIENPQYFGITN; UniProt Q16620 509-521, looked up, fragment)”, the “Relative phosphorylation (% of highest signal)” value is -0.566 % of highest signal in experiment [1]; -0.422 % of highest signal in experiment [2]; 0.0821 % of highest signal in experiment [3]; 0.113 % of highest signal in experiment [4]; -1.0 % of highest signal in experiment [5]; -0.0217 % of highest signal in experiment [6].
As to “ODBA_340_352_D340K (KDSSAYRSVDEVN; UniProt P12694 340-352, looked up, variant D340K)”, the “Relative phosphorylation (% of highest signal)” value in experiment [1] was -0.457 % of highest signal; in experiment [2], 10.4 % of highest signal; in experiment [3] it was 1.5 % of highest signal; in experiment [4] it was 0.112 % of highest signal; in experiment [5], -0.358 % of highest signal; in experiment [6], 5.2 % of highest signal.
With “PERI_458_470 (QRSELDKSSAHSY; UniProt P41219 458-470, looked up, fragment)”, the “Relative phosphorylation (% of highest signal)” value in experiment [1] is -0.5 % of highest signal; in experiment [2] it was -0.632 % of highest signal; in experiment [3], -1.3 % of highest signal; in experiment [4] it was -0.0931 % of highest signal; in experiment [5], -1.2 % of highest signal; in experiment [6] it was -0.4 % of highest signal.
Regarding “STA5A_687_699 (LAKAVDGYVKPQI; UniProt P42229 687-699, looked up, fragment)”, the “Relative phosphorylation (% of highest signal)” value is listed as -0.46 % of highest signal in experiment [1]; -1.3 % of highest signal in experiment [2]; -1.9 % of highest signal in experiment [3]; -0.4 % of highest signal in experiment [4]; -3.6 % of highest signal in experiment [5]; -0.439 % of highest signal in experiment [6].
As for “STAT1_694_706 (DGPKGTGYIKTEL; UniProt P42224 694-706, looked up, fragment)”, the “Relative phosphorylation (% of highest signal)” value in experiment [1] is listed as -0.5 % of highest signal; in experiment [2], -1.4 % of highest signal; in experiment [3] it was -1.9 % of highest signal; in experiment [4], -0.0105 % of highest signal; in experiment [5], -3.3 % of highest signal; in experiment [6], -0.6 % of highest signal.
As to “STAT4_686_698 (TERGDKGYVPSVF; UniProt Q14765 686-698, looked up, fragment)”, the “Relative phosphorylation (% of highest signal)” value in experiment [1] is -0.247 % of highest signal; in experiment [2], -0.9 % of highest signal; in experiment [3] it was -1.2 % of highest signal; in experiment [4], -0.165 % of highest signal; in experiment [5], -4.1 % of highest signal; in experiment [6], -0.7 % of highest signal.
As to “STAT6_634_646 (MGKDGRGYVPATI; UniProt P42226 634-646, looked up, fragment)”, the “Relative phosphorylation (% of highest signal)” value in experiment [1] was -0.355 % of highest signal; in experiment [2], -1.1 % of highest signal; in experiment [3], -2.2 % of highest signal; in experiment [4] it was -0.3 % of highest signal; in experiment [5], -4.7 % of highest signal; in experiment [6], -0.6 % of highest signal.
Regarding “VGFR1_1046_1058_Y1048F (DIFKNPDYVRKGD; UniProt P17948 1046-1058, looked up, variant Y1048F)”, the “Relative phosphorylation (% of highest signal)” value in experiment [1] is on record as -0.452 % of highest signal; in experiment [2], -0.9 % of highest signal; in experiment [3], 1.1 % of highest signal; in experiment [4] it was -0.0478 % of highest signal; in experiment [5], -2.7 % of highest signal; in experiment [6], -0.449 % of highest signal.
Regarding “VGFR1_1049_1061 (KNPDYVRKGDTRL; UniProt P17948 1049-1061, looked up, fragment)”, the “Relative phosphorylation (% of highest signal)” value in experiment [1] was -0.333 % of highest signal; in experiment [2], -0.8 % of highest signal; in experiment [3], -0.167 % of highest signal; in experiment [4] it was -0.274 % of highest signal; in experiment [5], -2.4 % of highest signal; in experiment [6], -0.36 % of highest signal.
As for “VGFR1_1162_1174 (VQQDGKDYIPINA; UniProt P17948 1162-1174, looked up, fragment)”, the “Relative phosphorylation (% of highest signal)” value in experiment [1] was 2.3 % of highest signal; in experiment [2] it was -0.737 % of highest signal; in experiment [3] it was 1.8 % of highest signal; in experiment [4], -0.153 % of highest signal; in experiment [5], -3.4 % of highest signal; in experiment [6], -0.426 % of highest signal.
With “VGFR1_1206_1218 (GSSDDVRYVNAFK; UniProt P17948 1206-1218, looked up, fragment)”, the “Relative phosphorylation (% of highest signal)” value in experiment [1] is -0.0198 % of highest signal; in experiment [2], -0.459 % of highest signal; in experiment [3], -0.354 % of highest signal; in experiment [4], -0.1 % of highest signal; in experiment [5], -1.0 % of highest signal; in experiment [6], 0.0233 % of highest signal.
As to “VGFR1_1235_1247 (ATSMFDDYQGDSS; UniProt P17948 1235-1247, looked up, fragment)”, the “Relative phosphorylation (% of highest signal)” value in experiment [1] was -0.11 % of highest signal; in experiment [2], -0.5 % of highest signal; in experiment [3], 17.6 % of highest signal; in experiment [4] it was -0.0433 % of highest signal; in experiment [5] it was 0.9 % of highest signal; in experiment [6], -0.543 % of highest signal.
